Assay results reported in patent US12364734B2, “Methods of treating Alzheimers disease” (NUtech Ventures, priority 2020, dated 2025).

How the values were obtained:
APP [1] = biological target: T1, APP (Homo sapiens, UniProt P05067); assay: P2 effect on APP processing and amyloid formation (Western blot, immunofluorescence); assay type: cell-based
Target sequence in this assay (P05067 18-770, species assumed): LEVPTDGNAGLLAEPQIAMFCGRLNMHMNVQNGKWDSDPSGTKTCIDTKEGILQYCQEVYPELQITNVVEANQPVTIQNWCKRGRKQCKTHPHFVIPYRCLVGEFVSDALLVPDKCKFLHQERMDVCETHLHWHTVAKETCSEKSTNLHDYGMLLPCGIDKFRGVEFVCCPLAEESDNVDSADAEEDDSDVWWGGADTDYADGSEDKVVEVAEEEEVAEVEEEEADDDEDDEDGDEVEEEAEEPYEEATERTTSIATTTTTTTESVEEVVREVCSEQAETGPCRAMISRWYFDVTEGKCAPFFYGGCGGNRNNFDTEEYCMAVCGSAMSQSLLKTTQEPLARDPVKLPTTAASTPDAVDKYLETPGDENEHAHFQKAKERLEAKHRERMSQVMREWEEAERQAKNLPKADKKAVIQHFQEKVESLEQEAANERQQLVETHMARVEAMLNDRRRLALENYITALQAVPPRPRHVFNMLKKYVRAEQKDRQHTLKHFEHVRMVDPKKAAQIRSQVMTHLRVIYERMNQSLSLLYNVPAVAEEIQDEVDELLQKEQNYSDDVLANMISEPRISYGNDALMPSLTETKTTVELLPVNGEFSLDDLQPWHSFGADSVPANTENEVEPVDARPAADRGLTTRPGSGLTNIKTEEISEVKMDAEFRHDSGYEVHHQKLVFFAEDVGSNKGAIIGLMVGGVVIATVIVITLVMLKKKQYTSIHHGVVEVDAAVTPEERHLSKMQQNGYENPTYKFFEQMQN

APP [2] = biological target: T1, APP; assay: APP expression in HEK293 cells with P2 peptide (Western blot); assay type: cell-based; parameters: expressed in transfected cells; host or cells: HEK293
Target sequence in this assay (P05067 18-695 isoform P05067-4 limits assumed): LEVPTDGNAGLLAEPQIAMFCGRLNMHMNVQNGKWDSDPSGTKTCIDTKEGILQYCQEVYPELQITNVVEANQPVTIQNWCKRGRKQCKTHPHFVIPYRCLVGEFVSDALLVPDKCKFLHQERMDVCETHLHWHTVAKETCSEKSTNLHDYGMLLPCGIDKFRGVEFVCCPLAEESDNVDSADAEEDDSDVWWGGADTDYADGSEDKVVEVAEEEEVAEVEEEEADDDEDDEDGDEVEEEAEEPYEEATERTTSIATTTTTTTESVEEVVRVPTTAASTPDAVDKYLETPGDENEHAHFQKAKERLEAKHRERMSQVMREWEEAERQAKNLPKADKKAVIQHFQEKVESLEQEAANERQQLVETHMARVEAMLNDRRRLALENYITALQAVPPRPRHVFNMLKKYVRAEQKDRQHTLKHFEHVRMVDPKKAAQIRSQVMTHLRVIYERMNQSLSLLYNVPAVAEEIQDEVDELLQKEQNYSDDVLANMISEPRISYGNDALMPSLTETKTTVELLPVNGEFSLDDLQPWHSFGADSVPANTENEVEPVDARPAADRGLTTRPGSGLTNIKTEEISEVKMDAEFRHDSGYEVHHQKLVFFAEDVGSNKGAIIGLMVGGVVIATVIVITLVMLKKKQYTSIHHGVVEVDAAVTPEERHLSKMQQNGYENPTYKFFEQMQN

[3] = Water solubility of the peptide; assay type: physicochemical
APP [4] = biological target: T1, APP; assay: APP protein stability assay with cycloheximide (CHX) in HEK293 cells; assay type: cell-based; parameters: expressed in transfected cells; host or cells: HEK293; conditions: HEK293 co-transfected with APP plasmid plus P2 or BSA; CHX for one hour
Target sequence in this assay (P05067 18-695 isoform P05067-4 limits assumed): as above

[5] = biological target: T2, Epstein-Barr virus latent membrane protein 1 (LMP1) (Epstein-Barr virus, UniProt P03230); assay: LMP1 expression in HEK293 cells co-transfected with P2 peptide (specificity control); assay type: cell-based; conditions: HEK293 co-transfected with LMP1 expression plasmid and P2 peptide with PULSin
T2 construct: expressed in transfected cells; host or cells: HEK293
T2 sequence (P03230 whole entry): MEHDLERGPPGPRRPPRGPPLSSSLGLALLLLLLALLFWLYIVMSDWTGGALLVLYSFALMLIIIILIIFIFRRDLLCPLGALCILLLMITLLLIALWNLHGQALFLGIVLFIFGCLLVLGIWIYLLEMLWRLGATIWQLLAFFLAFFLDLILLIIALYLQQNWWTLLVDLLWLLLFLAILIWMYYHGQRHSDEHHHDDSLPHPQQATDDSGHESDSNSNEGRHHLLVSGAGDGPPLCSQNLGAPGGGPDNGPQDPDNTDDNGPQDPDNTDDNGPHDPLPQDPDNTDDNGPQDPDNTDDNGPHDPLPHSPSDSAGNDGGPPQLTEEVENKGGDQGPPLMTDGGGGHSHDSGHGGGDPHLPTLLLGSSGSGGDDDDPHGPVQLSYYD
Excerpt: FIGS. 6A-6B: FIG. 6A. HEK293 cells were transfected with EBV LMP1 expression plasmid or vector control (pcDNA3). One day later, the cells were infected with or without ZIKV overnight as in FIG. 2a. Western blots were used for detection of LMP1 and tubulin simultaneously. The images in the same box indicate they were derived from the same gels. The identity of the proteins is as shown. FIG. 6B. HEK293 cells were co-transfected with different amounts of LMP1 expression plasmid and P2 peptide, or BSA protein ([…]) with PULSin reagents. One day later, the expression of APP and tubulin were examined simultaneously by Western Blot analyses. The identity of the proteins is as shown.
We suspected that the loop in the specific structure of ZIKV E protein was responsible for the potential interaction with APP (FIGS. 1A and 1B). A peptide (P2) derived from the potential binding site, the β-hairpin region, was synthesized with sequence optimization (FIG. 1C). Located in the core region of the ZIKV E protein and being hydrophobic, the eight amino acid stretch, EYRIMLSV, in the β-hairpin region of E protein was not included in the P2 sequence. Furthermore, the P2 peptide could potentially form a similar structure as in the native protein by including extra amino acids in the C-terminus (FIGS. 1B and 1C). […]

## HGSQHSGMIVNDTGHETDENRAKVEITPNSPRAEATLGGFGSLGL (listed as Zika virus) [P2, peptide derived from the β-hairpin region of ZIKV E protein, without EYRIMLSV stretch]
APP [1]; Example 4, FIG. 13
  APP metabolic processing: block APP metabolic processing
  interaction with APP: interacts with APP
APP [1]; Western blot (FIG. 13A) and immunofluorescence (FIG. 13B)
  amyloid formation: reduces amyloid formation
APP [2]; HEK293 co-transfected with APP695 plasmid (0.5 μg) and P2 peptide (1 μg) with PULSin, compared with BSA control, one day later
  APP expression: could increase the expression of APP
APP [2]; treating cells directly with peptide (data not shown)
  APP expression: could not enhance APP expression
[3]
  water solubility: water-soluble
APP [4]
  mechanism of APP enhancement (APP protein stability): a similar mechanism to ZIKV was established
[5]
  LMP1 expression: could not be enhanced
